Experimental data as given in patent publication US20040161448.

Tests used:
[1] = biological target: soybean agglutinin (SBA), P05046
[2] = biological target: T1, Soybean Kunitz Trypsin Inhibitor, P01070
T1 chain: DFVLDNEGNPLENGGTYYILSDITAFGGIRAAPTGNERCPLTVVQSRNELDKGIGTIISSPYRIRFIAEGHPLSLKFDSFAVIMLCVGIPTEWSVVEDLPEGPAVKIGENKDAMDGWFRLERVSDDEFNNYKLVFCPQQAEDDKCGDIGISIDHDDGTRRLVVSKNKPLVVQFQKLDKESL

[3] = biological target: T2, soybean Bowman-Birk Inhibitor, P01055
T2 chain: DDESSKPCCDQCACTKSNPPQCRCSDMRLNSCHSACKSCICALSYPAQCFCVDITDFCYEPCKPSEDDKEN

Sequence of soybean agglutinin (SBA), P05046 (P05046 33-285): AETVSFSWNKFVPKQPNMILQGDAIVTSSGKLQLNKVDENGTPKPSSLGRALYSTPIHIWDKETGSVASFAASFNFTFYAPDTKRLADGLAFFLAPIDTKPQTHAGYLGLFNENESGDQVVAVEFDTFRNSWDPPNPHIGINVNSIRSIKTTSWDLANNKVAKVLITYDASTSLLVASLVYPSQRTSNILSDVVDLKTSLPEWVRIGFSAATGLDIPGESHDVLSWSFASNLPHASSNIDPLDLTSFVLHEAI

B1: protease derived from Nocardiopsis sp. NRRL 18262 (protein)
chain: ADIIGGLAYTMGGRCSVGFAATNAAGQPGFVTAGHCGRVGTQVTIGNGRGVFEQSVFPGNDAAFVRGTSNFTLTNLVSRYNTGGYATVAGHNQAPIGSSVCRSGSTTGWHCGTIQARGQSVSYPEGTVTNMTRTTVCAEPGDSGGSYISGTQAQGVTSGGSGNCRTGGTTFYQEVTPMVNSWGVRLRT
[1]
  % of anti-nutritional factor degraded: 75%
[2]
  % of anti-nutritional factor degraded: 100%
[3]
  % of anti-nutritional factor degraded: 25%
